From patent CN113521276A (JIANGSU QUANXIN BIOMEDICAL CO LTD, dated 2021)

Biological target: T1, 人干扰素α受体1(IFNAR1) (human, UniProt P17181 28-436)
T1 construct: Soluble antigen run over captured antibody in the Biacore assay; also called 人IFNAR1; Human Interferon alpha/beta Receptor 1
T1 sequence: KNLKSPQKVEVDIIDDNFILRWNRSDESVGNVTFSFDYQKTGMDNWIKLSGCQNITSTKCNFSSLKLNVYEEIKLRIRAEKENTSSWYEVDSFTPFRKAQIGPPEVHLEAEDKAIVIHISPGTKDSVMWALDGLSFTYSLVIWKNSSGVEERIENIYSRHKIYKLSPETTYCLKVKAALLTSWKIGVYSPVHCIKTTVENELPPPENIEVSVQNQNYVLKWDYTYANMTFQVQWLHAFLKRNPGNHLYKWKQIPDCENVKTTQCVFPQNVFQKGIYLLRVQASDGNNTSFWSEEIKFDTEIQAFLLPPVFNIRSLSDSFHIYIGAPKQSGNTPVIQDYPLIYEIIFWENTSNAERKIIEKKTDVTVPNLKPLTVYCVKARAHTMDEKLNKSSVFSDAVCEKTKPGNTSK
Test: SPR, Biacore T200, antibody captured on Protein A chip, antigen in solution, 25℃, 1:1 model, mean of three runs

B1: QX006N(HZD1203-45-IgG4.1) (antibody, V domains shown)
VH: EVQLVESGGGLVQPGGSLRLSCAASGFSLSSYYMTWVRQAPGKGLEWVSVINVYGGTYYASWAKGRFTISRDNSKNTLYLQMNSLRAEDTAVYYCAREDVAVYMAIDLWGQGTLVTVSS
VL: AIQMTQSPSSLSASVGDRVTITCQASQSISNQLSWYQQKPGKAPKLLIYDASSLASGVPSRFSGSRSGTKFTLTISSLQPEDFATYYCLGIYGDGADDGIAFGGGTKVEIK
notes: Humanised rabbit antibody from clone 1203#; also called 抗人干扰素α受体1(IFNAR1)单克隆抗体
Kd: 108 pM | koff: 3.76e-05 s⁻¹ | kon: 347000 M⁻¹ s⁻¹
